Data taken from the DeepSol protein solubility set.

Experiment: soluble on expression in E. coli; label from the status in PepcDB or PDB records

Row | Sequence | soluble on expression in E. coli
1 | MGSDKIHHHHHHMTHPQDQHPPQDARTLPTRDHDASEALLERVRQAAATGTALRLVGGGSKGFYGRPVVGETLSLAEHTGIVNYDPVELVVTVRAGTRLADLQAVLAQEGQQLAFEPPHFGENATVGGTVACGLSGPRRPWAGSVRDFVLGTRMITHDGKRLHFGGEVMKNVAGYDLSRLMVGAQGTLGIIDEVSFKVLPRPAASATLRLEMGLGDAMARLAEWGRKPMPITGAAHDGETLHLRLEGGASSVANTQAQLGGELDDTAFWTQLRELELAFFSRRHDDRPLWRLSLPHRAPPLALDGDTLVDWAGAQRWLRSELPAATIRQHAAQAGGHATLVDRDRAHGVDAPFTPLSVVMDKYHRQLKAKLDPKGIFNPGRLYEGL | not soluble
2 | MSLSSKKLGVILYGPPASGKDTVAQALSELDARYGQFARLKVGSGRTTRYRMGTAEQLHDLEAAGAAIYTNSRYGNTYVIDRPGMDSAFEAGVPVVHLGQIDGIRALVDGYTADWAVVLLWCSQEVTAQRSAGRGDSDTTARLAAWQATREDLDAHPDMRWDLTVDTEATAAEESARLIDQLLHARAGVTEGHHHHHH | soluble
3 | MAVPPAYSDLGKSAKDIFSKGYGFGIVKLDLKTKSQNGVEFNTSGSTNTDTGKAAGSLETKYKLKDLGLSFNQKWNTDNMLTTEVSVEDQLAEGLKVALDTSFVPNTGKKSGKLKTSYKREFVNVSCDLDFEGPVVHSAAVLGYEGWLLGYLVAFDTAKSKLVQNNFALGYKTGDFQLHTNVNDGAEFGGSVYQKVSDQLETAVTLAWTAGSNNTRFGVAAKYQLDKDASLSAKVNNASLIGIGYTQSLRPGVKLTLSALVDGKNFNTGGHKVGLGFELEA | not soluble
4 | ETTSCEFSVSPSGLAFCDKVVGYGPEAVKGQLIKAHYVGKLENGKVFDSSYNRGKPLTFRIGVGEVIKGWDQGILGSDGIPPMLTGGKRTLRIPPELAYGDRGAGCKGGSCLIPPASVLLFDIEYIGKA | soluble
5 | MFSGKTSRLIELMERHILAGRKVTLFKPEIDSRYSENEVVTHKGIKLPAVIAPTDERFGEFLAARTRDSNVLGFDEAQFWKPSSRLPQHLEDLANSGRTVYVAALNRDHFGNPFRMTVDILAISDEIYTLSAVCSRCGSDAIFTQRIINGSPAFGEIIRIGGKDLYEPRCRNCFVWPSAQKRITDL | soluble
6 | MKYMIGVDIGTTSTKSVLYDENGTFIMKHQIGYDLHTPNVDVSEENPDELFDAVLMTIKYVMRESKVNKDDIKFVSFSAQMHSLIAMDQQHQRLTNNITWADNRAAKYATVINEVHDGNAIYQRTGTPIHPMSPLAKIFWMKHEWQDVFQRTAKFADIKTYIFYHLFDTYIIDYSMASATGMFNLETLDWDVEALELLGISKEMLPELVPTTYVMKGMKERYATLMGLNKDTPFVIGASDGVLSNLGVNSVGKGEVAVTIGTSGAIRTVIDKPRTDYKGRIFCYVLTEDHYVIGGPVNNGGVVLRWLRDELLASEVETAKRLGVDPYDVLTQIAKRVKPGADGLIFHPYLAGERAPLWNANARGSFFGLTLSHKKEHMIRAALEGVLYNLYTVYLALIEVMNETPKMIKATGGFAKSEVWRQMMSDIFDTELVVPESYESSCLGACVLGLKAVGDIEDFSIVSSMVGATNNHTPIEENVTVYQEIVSIFINLSRSLTENYEQIADFQRQHIAENKTQ | not soluble
7 | MSRSPDAKEDPVECPLCMEPLEIDDINFFPCTCGYQICRFCWHRIRTDENGLCPACRKPYPEDPAVYKPLSQEELQRI | soluble
8 | MGSDKIHHHHHHMSIAIRRDEEIALSCHGVSKSFVISGEQNIWRMFCALPVRGEVFAALRDVSLEVPRGKIVGILGRNGAGKSTLLRVLGGVYQPTSGTVDVHGQVCGLFEMGGFGNRELSGREYATRYLTVMGAPRKDRGDLLADIAEFSELGADFDRKILTYSAGMAARLYFSTATAMRHEIYLIDELLSVGDEHFQAKCWIRMRNLLLNGASGILVTHDWVSTLKLCQQSHILERGSIVASGRTDAAVVKYLDLPVPDGALARFCDSDRATWHAVAGEDAVFEFDIESEEDIPLVFTYSVELMRIGIGWDIMLLGQRPIGSGNGRRRVQLKVPALPLAPGEYSLTVGLIKEKTRAEDEAVICDARGWTTGNGYVLEVSGTLEQGTTILPMEISGWIDD | not soluble
9 | MVFTPLDVRTIVSLPSCPKCNSEYTYEDGSLLICPECAHEWSADAGSADASDDVKVIKDSTGNVLQDGDTITVIKDLKVKGSSLVVKVGTKVKNIRLVDGDHDIDCKIDGIGAMKLKSEFVRKV | not soluble
10 | MTPPEERQMLRETVASLVAKHAGPAAVRAAMASDRGYDESLWRLLCEQVGAAALVIPEELGGAGGELADAAIVVQELGRALVPSPLLGTTLAELALLAAAKPDAQALTELAQGSAIGALVLDPDYVVNGDIADIVVAATSGQLTRWTRFSAQPVATMDPTRRLARLQSEETEPLCPDPGIADTAAILLAAEQIGAAERCLQLTVEYAKSRVQFGRPIGSFQALKHRMADLYVTIAAARAVVADACHAPTPTNAATARLAASEALSTAAAEGIQLHGGIAITWEHDMHLYFKRAHGSAQLLESPREVLRRLESEVWESP | not soluble
11 | VTPVTTFPLVDAILAGRDRNLDGVILIAAQHLLQTTHAMLRSLFRVGLDPRNVAVIGKCYSTHPGVVDAMRADGIYVDDCSDAYAPHESFDTQYTRHVERFFAESWARLTAGRTARVVLLDDGGSLLAVAGAMLDASADVIGIEQTSAGYAKIVGCALGFPVINIARSSAKLLYESPIIAARVTQTAFERTAGIDSSAAILITGAGAIGTALADVLRPLHDRVDVYDTRSGCMTPIDLPNAIGGYDVIIGATGATSVPASMHELLRPGVLLMSASSSDREFDAVALRRRTTPNPDCHADLRVADGSVDATLLNSGFPVNFDGSPMCGDASMALTMALLAAAVLYASVAVADEMSSDHPHLGLIDQGDIVASFLNIDVPLQALSRLPLLSIDGYRRLQVRSGYTLFRQGERADHFFVIESGELEALVDGKVILRLGAGDHFGEACLLGGMRRIATVRACEPSVLWELDGKAFGDALHGDAAMREIAYGVARTRLMHAGASESLMV | not soluble
12 | MSLDRILTFDCYGTLIDTKPVFDAISNIAKNNILNSKDAVNIYVNYEDRLMYGETYIPYDKLIKQVLEYCDMELVTNVFSKSYDEIISVHKRLKPFKEVVESLEKIHKKGYELALMSNSVHDIIDYNLDALGNVFNNVFLSEDIHAYKPQLKFFKYVEERLELKQKKHCHIAKGYWWDIVPCSKLGWRKIWVNRENKKGNKCHEPYEEVHTLDEVINLIEGHHHHHH | soluble
13 | MSLELKKFFVLVLLLGSVCPAFCGGDTLHCRFYFPVGSAIPDLSYRDNGPRLDSFLSSIRSLQERAVLRRVRLRSGASPEGNSMLNRRLSDERLVSLRAVMRERLSVPDSVLVCLSSGEDWEGLSVLVGESDMPCRDEVLRILRDTPVWVVRGGKVVDSRKRQLMNLRGGSVWRYMAEHFFPELRNCTVVECEFGPVISGNDREIAVYQKEAEARDTVILRDTVERTVVIRDTVQVPASVGNALKPFYMGLKTNLLYDALLVPNLGVEFYLGRGWSFGGNWMYAWWKSDRHHNYWRIYGGELALRKYFGRRAAEKPLAGHHLGLYGQLFTYDFEVGGTGYMGGRPGGTLWEKMNYAVGLEYGYSLPIARRLNLDFVIGVGYWGGEYHKYDPVDGCYVWKETLQRHWFGPTKAEVSLVWLLGRGNHNEKGGKEGHHHHHH | not soluble
14 | MQSTPKPFDIEQPSLRVFLPAPELATGRAVVACPGGGYSGLAVNHEGYDWAPYFNKQGIALIVLKYRMPKGDRTLPISDAEAAMKMVRDSADVWNLNPNDIGIMGSSAGGHLASTIATHAPEALRPNFQILFYPVITMDKSFTHMGSHDNLLGKDASADLEKEFSNEKQVTKETPRAFIVYSDDDKVVPPANGVNYYLALNKKGVPSVLHIYPTGGHGWGIREDFLEHHHHHH | not soluble
15 | EKQSIHRTQLEALDSVITDLETSAQKGISLTEPEIFASLLETCYSLRAIDHGVRVHHLIPPYLLRNNLGISSKLVRLYASCGYAEVAHEVFDRMSKRDSSPFAWNSLISGYAELGQYEDAMALYFQMAEDGVKPDRFTFPRVLKACGGIGSVQIGEAIHRDLVKEGFGYDVYVLNALVVMYAKCGDIVKARNVFDMIPHKDYVSWNSMLTGYLHHGLLHEALDIFRLMVQNGIEPDKVAISSVLARVLSFKHGRQLHGWVIRRGMEWELSVANALIVLYSKRGQLGQACFIFDQMLERDTVSWNAIISAHSKNSNGLKYFEQMHRANAKPDGITFVSVLSLCANTGMVEDGERLFSLMSKEYGIDPKMEHYACMVNLYGRAGMMEEAYSMIVQEMGLEAGPTVWGALLYACYLHGNTDIGEVAAQRLFELEPDNEHNFELLIRIYSKAKRAEDVERVRQMMVDRGLET | soluble
16 | MSLRPQAPMTQTPMAQASTSTTTPQKIVLYMATTTSVKDTGLLDVLIPDFEKWAASRGYNIEVRYTAVGTGQALAMAARGDVDVVIVHAPSLEKQYLENGTLKCRDVIAYNFFIIVGPRDDPAGAKSLTATEAFRRIAEAKAPFVSRGDRSGTHLMELSLWRRAIGREPDPKNDTWYISAGAGMGQTLLLANEKSAYTLSDTGTWLRYRDKLPQLDVIVQAAPDLINIYSFSIVKLSNATRLMAQYMKTRGLEVIGNLTINGVSLFTPINKADPKAMEWIKTAIFGPSCVEREGHHHHHH | soluble
17 | MLSIHDPLLIFTDLDGTLLNSHTFEWQPAAPWLTRLHESGVPVILCSSKTAAEMLQLQTTLNLQGLPLIAENGAVIQLDVHWEDHPNYPRLIAGISHNEIRLVLHKLREKEQFKFTTFDDVDDQVISEWTGLNRAQSALTRLHEASVSLIWRDSDERMAQFVARLNDLGLQFVHGARFWHVLDASAGKDQAANWLIEAYRRQWRARPLTLGLGDGPNDAPLLDVMDYAVVVKGLNREGVHLRNDDPQRVYRSQNEGPDGWREGMDYFFSRSLEHHHHHH | soluble
18 | AAGKDFVVKGKDGWAIIAGYHWFDEWGRDTFISLEGLLLVDKQYDIAKEIILKYLNLEKRGMLPNNFISYNGEPVYRGVDISLWAINAIYKTYIYSRDKNFIRKVVDKVLDIIDWYSKGNGVIYNVDNLIFHKGAPRTWMDASYDSRIVTPREGAAVEINALWYNALRVTEFLLNELGEKAEYLSEKAESVKKSFAEKFISQDGLYDYINWDNIPDKSIRPNQIFSISLPFPIIDDKSIASKILTLIESKLLRQYGLSSLSREDPNYKPVYKGDRRSRESLPQWTHMALVTRRLC | not soluble
19 | MQFWRKQMSEIQHFSQQDIEILGEQTLYEGFFTLKRIQFKHKLFAGGQSGVVTRELLIKGAASAVIAYDPKEDSVILVEQVRIGAAYHPESHRSPWLLELIAGMVEKGEKPEDVALRESEEEAGIQVKNLTHCLSVWDSPGGIVERIHLFAGEVDSAQAKGIHGLAEENEDIKVHVVKREQAYQWMCEGKIDNGIAVIGLQWLQLNYAQLQQSWKRS | not soluble
20 | MSLPQSKVLTSFGTANRTPRAAETHPLTWRLRDDGQPVWLEEYQTKQGYDAVRKALGQMSPDEIVSTVKDAGLKGRGGAGFPTGVKWGLMPKDESMNIRYLLCNADEMEPNTWKDRLLMEQLPHLLIEGMIISAKALKAYRGYIFLRGEYVDAAINLRRAVEEAKAAGLLGKNILGSGFDFELFVHTGAGRYICGEETALINSLEGRRANPRAKPPFPAVSGVWGKPTCVNNVETLCNVPAIIGNGVAWYHTLALPGSEDHGTKLMGFSGKVNNPGVWELPFGITARELFEGYAGGMRSGYRLKAWQPGGAGTGFLLPEHLDAQMYTAGIGKVGTRMGTGLAMAVDDSISMVSLLRNMEEFFARESCGWCTPCRDGLPWSVKLLRSLERGEGQEGDLATLEQLCNFLGPGKTFCAHAPGAVEPLASAIKYFRSEFEAGIKGSGDNRKSIKGIQPNLLGERWAAALEHHHHHH | soluble
21 | PPGPCLPPRLQGRPKAKEIQLRWGPPLVDGGSPISCYSVEMSPIEKDEPREVYQGSEVECTVSSLLPGKTYSFRLRAANKMGFGPFSEKCDITTAPG | soluble
